# Laboratory results from US20190300590A1 (PROTAGONIST THERAPEUTICS, published 2019).
# Where two headings read alike, the source gives them in different places. Bridges are numbered along the chain shown (N, C = ends). Primed or numbered codes have the meaning given here. Where no end group is shown, it is not given here. [ ]: non-standard residue; d: D form. Bip = N[C@@H](Cc1ccc(-c2ccccc2)cc1)C(=O)O; 1Nal = N[C@@H](Cc1cccc2ccccc12)C(=O)O; NMeH = CN[C@@H](Cc1c[nH]cn1)C(=O)O; NMeE = CN[C@@H](CCC(=O)O)C(=O)O; Aic′ = not defined here; Aib = CC(C)(N)C(=O)O; PEG1 = NCCOCCC(=O)O; AEA = NCCOCC(=O)O
# T1: IL23R_huFC (human, UniProt Q5VWK5 24-353)
# T1 sequence (looked up): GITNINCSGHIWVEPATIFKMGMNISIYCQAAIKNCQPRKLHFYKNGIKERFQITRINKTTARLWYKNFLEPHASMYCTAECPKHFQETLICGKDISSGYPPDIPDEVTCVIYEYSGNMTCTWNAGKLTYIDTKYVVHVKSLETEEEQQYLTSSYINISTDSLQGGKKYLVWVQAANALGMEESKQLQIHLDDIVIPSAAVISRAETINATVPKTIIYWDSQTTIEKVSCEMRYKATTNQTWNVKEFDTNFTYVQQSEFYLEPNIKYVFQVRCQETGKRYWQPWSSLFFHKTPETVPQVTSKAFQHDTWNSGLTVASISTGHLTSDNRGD
# Experiments:
# IL23R_huFC [1] = molecular target: T1, IL23R_huFC; assay: IL23-IL23R competitive ELISA
# IL23R_huFC [2] = molecular target: T1, IL23R_huFC; assay: IL23-IL23R competitive ELISA; remark: listed apart in the source
Binder,IC50 (IL23R_huFC [1]),IC50 (IL23R_huFC [2])
Ac-CADWVCYWHRCGWWGC-NH2 (disulfide (positions not given here)) [Ac-CADWVCYWHRCGWWGC-NH2],> 1000 nM,
Ac-CQDWQCYWRENG[AEA][dK]-NH2 (disulfide 1-6 (inferred)) [Ac-CQDWQCYWRENG-[AEA]-[(D)-Lys]-NH2],,< 500 nM
"Ac-CQTWQCYWRKNG[AEA][dK]-NH2 (disulfide 1-6; SMILES CC(=O)N[C@H]1CSSC[C@@H](C(=O)N[C@@H](Cc2ccc(O)cc2)C(=O)N[C@@H](Cc2c[nH]c3ccccc23)C(=O)N[C@@H](CCCNC(=N)N)C(=O)N[C@@H](CCCCN)C(=O)N[C@@H](CC(N)=O)C(=O)NCC(=O)NCCOCC(=O)N[C@H](CCCCN)C(N)=O)NC(=O)[C@H](CCC(N)=O)NC(=O)[C@H](Cc2c[nH]c3ccccc23)NC(=O)[C@H]([C@@H](C)O)NC(=O)[C@H](CCC(N)=O)NC1=O) [Ac-CQTWQCYWRKNG-[AEA]-[(D)-Lys]-NH2, listing 1 of 2 here]",,< 500 nM
"Ac-CQTWQCYWRENG[AEA][dK]-NH2 (disulfide 1-6; SMILES CC(=O)N[C@H]1CSSC[C@@H](C(=O)N[C@@H](Cc2ccc(O)cc2)C(=O)N[C@@H](Cc2c[nH]c3ccccc23)C(=O)N[C@@H](CCCNC(=N)N)C(=O)N[C@@H](CCC(=O)O)C(=O)N[C@@H](CC(N)=O)C(=O)NCC(=O)NCCOCC(=O)N[C@H](CCCCN)C(N)=O)NC(=O)[C@H](CCC(N)=O)NC(=O)[C@H](Cc2c[nH]c3ccccc23)NC(=O)[C@H]([C@@H](C)O)NC(=O)[C@H](CCC(N)=O)NC1=O) [Ac-CQTWQCYWRENG-[AEA]-[(D)-Lys]-NH2, listing 1 of 3 here]",,< 500 nM
"Ac-CQTWQCYWRENG[AEA][dK]-NH2 (disulfide 1-6; SMILES CC(=O)N[C@H]1CSSC[C@@H](C(=O)N[C@@H](Cc2ccc(O)cc2)C(=O)N[C@@H](Cc2c[nH]c3ccccc23)C(=O)N[C@@H](CCCNC(=N)N)C(=O)N[C@@H](CCC(=O)O)C(=O)N[C@@H](CC(N)=O)C(=O)NCC(=O)NCCOCC(=O)N[C@H](CCCCN)C(N)=O)NC(=O)[C@H](CCC(N)=O)NC(=O)[C@H](Cc2c[nH]c3ccccc23)NC(=O)[C@H]([C@@H](C)O)NC(=O)[C@H](CCC(N)=O)NC1=O) [Ac-CQTWQCYWRENG-[AEA]-[(D)-Lys]-NH2, listing 2 of 3 here]",,< 500 nM
"Ac-CQTWQCYWRKNG[AEA][dK]-NH2 (disulfide 1-6; SMILES CC(=O)N[C@H]1CSSC[C@@H](C(=O)N[C@@H](Cc2ccc(O)cc2)C(=O)N[C@@H](Cc2c[nH]c3ccccc23)C(=O)N[C@@H](CCCNC(=N)N)C(=O)N[C@@H](CCCCN)C(=O)N[C@@H](CC(N)=O)C(=O)NCC(=O)NCCOCC(=O)N[C@H](CCCCN)C(N)=O)NC(=O)[C@H](CCC(N)=O)NC(=O)[C@H](Cc2c[nH]c3ccccc23)NC(=O)[C@H]([C@@H](C)O)NC(=O)[C@H](CCC(N)=O)NC1=O) [Ac-CQTWQCYWRKNG-[AEA]-[(D)-Lys]-NH2, listing 2 of 2 here]",,< 500 nM
Ac-CQTWQCYWRTNG[AEA][dK]-NH2 (disulfide 1-6; SMILES CC(=O)N[C@H]1CSSC[C@@H](C(=O)N[C@@H](Cc2ccc(O)cc2)C(=O)N[C@@H](Cc2c[nH]c3ccccc23)C(=O)N[C@@H](CCCNC(=N)N)C(=O)N[C@H](C(=O)N[C@@H](CC(N)=O)C(=O)NCC(=O)NCCOCC(=O)N[C@H](CCCCN)C(N)=O)[C@@H](C)O)NC(=O)[C@H](CCC(N)=O)NC(=O)[C@H](Cc2c[nH]c3ccccc23)NC(=O)[C@H]([C@@H](C)O)NC(=O)[C@H](CCC(N)=O)NC1=O) [Ac-CQTWQCYWRTNG-[AEA]-[(D)-Lys]-NH2],,< 500 nM
Ac-CQTWQCYWRRNG[AEA][dK]-NH2 (disulfide 1-6; SMILES CC(=O)N[C@H]1CSSC[C@@H](C(=O)N[C@@H](Cc2ccc(O)cc2)C(=O)N[C@@H](Cc2c[nH]c3ccccc23)C(=O)N[C@@H](CCCNC(=N)N)C(=O)N[C@@H](CCCNC(=N)N)C(=O)N[C@@H](CC(N)=O)C(=O)NCC(=O)NCCOCC(=O)N[C@H](CCCCN)C(N)=O)NC(=O)[C@H](CCC(N)=O)NC(=O)[C@H](Cc2c[nH]c3ccccc23)NC(=O)[C@H]([C@@H](C)O)NC(=O)[C@H](CCC(N)=O)NC1=O) [Ac-CQTWQCYWRRNG-[AEA]-[(D)-Lys]-NH2],,< 500 nM
"Ac-CQTWQCYWRENG[AEA][dK]-NH2 (disulfide 1-6; SMILES CC(=O)N[C@H]1CSSC[C@@H](C(=O)N[C@@H](Cc2ccc(O)cc2)C(=O)N[C@@H](Cc2c[nH]c3ccccc23)C(=O)N[C@@H](CCCNC(=N)N)C(=O)N[C@@H](CCC(=O)O)C(=O)N[C@@H](CC(N)=O)C(=O)NCC(=O)NCCOCC(=O)N[C@H](CCCCN)C(N)=O)NC(=O)[C@H](CCC(N)=O)NC(=O)[C@H](Cc2c[nH]c3ccccc23)NC(=O)[C@H]([C@@H](C)O)NC(=O)[C@H](CCC(N)=O)NC1=O) [Ac-CQTWQCYWRENG-[AEA]-[(D)-Lys]-NH2, listing 3 of 3 here]",,< 500 nM
Ac-CQTWQCYWRENG[AEA][dR]-NH2 (disulfide 1-6; SMILES CC(=O)N[C@H]1CSSC[C@@H](C(=O)N[C@@H](Cc2ccc(O)cc2)C(=O)N[C@@H](Cc2c[nH]c3ccccc23)C(=O)N[C@@H](CCCNC(=N)N)C(=O)N[C@@H](CCC(=O)O)C(=O)N[C@@H](CC(N)=O)C(=O)NCC(=O)NCCOCC(=O)N[C@H](CCCNC(=N)N)C(N)=O)NC(=O)[C@H](CCC(N)=O)NC(=O)[C@H](Cc2c[nH]c3ccccc23)NC(=O)[C@H]([C@@H](C)O)NC(=O)[C@H](CCC(N)=O)NC1=O) [Ac-CQTWQCYWRENG-[AEA]-[(D)Arg]-NH2],,< 500 nM
Ac-CADWVCY[Bip]HTFG[AEA][dK]-NH2 (disulfide 1-6; SMILES CC(=O)N[C@H]1CSSC[C@@H](C(=O)N[C@@H](Cc2ccc(O)cc2)C(=O)N[C@@H](Cc2ccc(-c3ccccc3)cc2)C(=O)N[C@@H](Cc2c[nH]cn2)C(=O)N[C@H](C(=O)N[C@@H](Cc2ccccc2)C(=O)NCC(=O)NCCOCC(=O)N[C@H](CCCCN)C(N)=O)[C@@H](C)O)NC(=O)[C@H](C(C)C)NC(=O)[C@H](Cc2c[nH]c3ccccc23)NC(=O)[C@H](CC(=O)O)NC(=O)[C@H](C)NC1=O) [Ac-CADWVCY-[Bip]-HTFG-[AEA]-[(D)Lys]-NH2],> 1000 nM,
Ac-CADWVCY[1Nal]H[Aib]FG-NH2 (disulfide 1-6; SMILES CC(=O)N[C@H]1CSSC[C@@H](C(=O)N[C@@H](Cc2ccc(O)cc2)C(=O)N[C@@H](Cc2cccc3ccccc23)C(=O)N[C@@H](Cc2c[nH]cn2)C(=O)NC(C)(C)C(=O)N[C@@H](Cc2ccccc2)C(=O)NCC(N)=O)NC(=O)[C@H](C(C)C)NC(=O)[C@H](Cc2c[nH]c3ccccc23)NC(=O)[C@H](CC(=O)O)NC(=O)[C@H](C)NC1=O) [Ac-CADWVCY-[1-Nal]-H-[Aib]-FG-NH2],> 1000 nM,
Ac-CADWVCY[1Nal]H[Aib][dF]G-NH2 (disulfide 1-6; SMILES CC(=O)N[C@H]1CSSC[C@@H](C(=O)N[C@@H](Cc2ccc(O)cc2)C(=O)N[C@@H](Cc2cccc3ccccc23)C(=O)N[C@@H](Cc2c[nH]cn2)C(=O)NC(C)(C)C(=O)N[C@H](Cc2ccccc2)C(=O)NCC(N)=O)NC(=O)[C@H](C(C)C)NC(=O)[C@H](Cc2c[nH]c3ccccc23)NC(=O)[C@H](CC(=O)O)NC(=O)[C@H](C)NC1=O) [Ac-CADWVCY-[1-Nal]-H-[Aib]-[(D)Phe]-G-NH2],> 1000 nM,
Ac-CQTWQCYW[NMeE]NG[AEA][dK] (disulfide 1-6 (inferred)) [Ac-CQTWQCYW[N-MeGlu]-NG-[AEA]-[(D)-Lys]],> 1000 nM,
Ac-CADWVCY[1Nal]HTF[Aib]-NH2 (disulfide 1-6; SMILES CC(=O)N[C@H]1CSSC[C@@H](C(=O)N[C@@H](Cc2ccc(O)cc2)C(=O)N[C@@H](Cc2cccc3ccccc23)C(=O)N[C@@H](Cc2c[nH]cn2)C(=O)N[C@H](C(=O)N[C@@H](Cc2ccccc2)C(=O)NC(C)(C)C(N)=O)[C@@H](C)O)NC(=O)[C@H](C(C)C)NC(=O)[C@H](Cc2c[nH]c3ccccc23)NC(=O)[C@H](CC(=O)O)NC(=O)[C@H](C)NC1=O) [Ac-CADWVCY-[1-Nal]-HTF-[Aib]-NH2],> 1000 nM,
Ac-CADWVCY[1Nal]H[PEG1]G-NH2 (disulfide 1-6; SMILES CC(=O)N[C@H]1CSSC[C@@H](C(=O)N[C@@H](Cc2ccc(O)cc2)C(=O)N[C@@H](Cc2cccc3ccccc23)C(=O)N[C@@H](Cc2c[nH]cn2)C(=O)NCCOCCC(=O)NCC(N)=O)NC(=O)[C@H](C(C)C)NC(=O)[C@H](Cc2c[nH]c3ccccc23)NC(=O)[C@H](CC(=O)O)NC(=O)[C@H](C)NC1=O) [Ac-CADWVCY-[1-Nal]-H-[AEP]-G-NH2],> 1000 nM,
Ac-CADWVC-NH2 (disulfide 1-6 (inferred)) [Ac-CADWVC-NH2],> 1000 nM,
Ac-CADWVCY[Aic′]HTFG[AEA][dK]-NH2 (disulfide 1-6) [Ac-CADWVCY-[Aic]-HTFG-[AEA]-[(D)Lys]-NH2],> 1000 nM,
Ac-CADWVCY[1Nal][NMeH][dA]F[Aib]-NH2 (disulfide 1-6; SMILES CC(=O)N[C@H]1CSSC[C@@H](C(=O)N[C@@H](Cc2ccc(O)cc2)C(=O)N[C@@H](Cc2cccc3ccccc23)C(=O)N(C)[C@@H](Cc2c[nH]cn2)C(=O)N[C@H](C)C(=O)N[C@@H](Cc2ccccc2)C(=O)NC(C)(C)C(N)=O)NC(=O)[C@H](C(C)C)NC(=O)[C@H](Cc2c[nH]c3ccccc23)NC(=O)[C@H](CC(=O)O)NC(=O)[C@H](C)NC1=O) [Ac-CADWVCY-[1-Nal]-[N-Me-His]-[(D)Ala]-F-[Aib]-NH2],> 1000 nM,
